In the experiment the target is T1, human recombinant Dkk-1 (human, UniProt O94907 32-266).
T1 construct: also called human Dkk-1; human Dkk1
T1 sequence (looked up): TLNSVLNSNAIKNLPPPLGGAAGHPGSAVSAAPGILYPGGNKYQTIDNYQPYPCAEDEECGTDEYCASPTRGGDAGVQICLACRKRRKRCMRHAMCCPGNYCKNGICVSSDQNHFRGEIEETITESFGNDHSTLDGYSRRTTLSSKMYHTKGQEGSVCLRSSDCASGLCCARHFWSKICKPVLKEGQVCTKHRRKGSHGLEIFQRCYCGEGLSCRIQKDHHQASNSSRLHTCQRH
Put plainly: AlphaScreen Dkk-1/LRP-6 inhibition. (Alpha assays give light when donor and acceptor beads are brought close together.)

CPSNEFMCADKMCFPLIFLCDGENDCEDGSDEVDCPSRT (designed binder) [C4234]: the binding result is reported as “binds”.
For the molecule CPASYFQCRNNNHCYPMEWRCDGFQDCEDGSDEKGCPYRT (designed binder) [C4229], the binding result was “binds”.

For the origin of these results see patent publication US9708375 (Amgen, dated 2017).
